“Also recorded” adds a separate entry of the source.
What was measured:
[1] = biological target: fibronectin (UniProt P02751)
[2] = biological target: fibrillin-1 (UniProt P35555)
[3] = biological target: human insoluble aortic elastin (UniProt P15502)
[4] = biological target: human insoluble skin elastin (UniProt P15502)
human insoluble skin elastin, sequence (P15502 27-786): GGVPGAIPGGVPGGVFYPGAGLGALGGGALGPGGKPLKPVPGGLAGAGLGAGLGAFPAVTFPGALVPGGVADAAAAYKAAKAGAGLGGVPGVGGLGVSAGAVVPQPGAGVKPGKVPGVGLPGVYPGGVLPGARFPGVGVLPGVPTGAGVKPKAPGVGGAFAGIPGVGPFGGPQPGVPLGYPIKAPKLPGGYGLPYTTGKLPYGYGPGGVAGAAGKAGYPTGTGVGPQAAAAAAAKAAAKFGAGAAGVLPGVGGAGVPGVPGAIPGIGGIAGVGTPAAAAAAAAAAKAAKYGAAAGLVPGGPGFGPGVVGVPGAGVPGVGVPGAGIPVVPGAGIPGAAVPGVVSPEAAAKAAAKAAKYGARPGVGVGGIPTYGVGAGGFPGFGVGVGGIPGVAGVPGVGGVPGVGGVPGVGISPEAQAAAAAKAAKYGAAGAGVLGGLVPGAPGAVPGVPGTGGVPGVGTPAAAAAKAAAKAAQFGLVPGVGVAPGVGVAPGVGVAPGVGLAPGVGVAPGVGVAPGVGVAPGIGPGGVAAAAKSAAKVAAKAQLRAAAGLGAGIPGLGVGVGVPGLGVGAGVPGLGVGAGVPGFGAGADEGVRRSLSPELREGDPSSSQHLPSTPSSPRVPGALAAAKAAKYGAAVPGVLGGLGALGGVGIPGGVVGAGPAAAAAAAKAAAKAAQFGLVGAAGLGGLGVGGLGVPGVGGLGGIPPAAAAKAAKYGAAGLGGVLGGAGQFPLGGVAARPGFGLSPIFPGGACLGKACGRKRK

fibrillin-1, sequence (P35555 whole entry, looked up): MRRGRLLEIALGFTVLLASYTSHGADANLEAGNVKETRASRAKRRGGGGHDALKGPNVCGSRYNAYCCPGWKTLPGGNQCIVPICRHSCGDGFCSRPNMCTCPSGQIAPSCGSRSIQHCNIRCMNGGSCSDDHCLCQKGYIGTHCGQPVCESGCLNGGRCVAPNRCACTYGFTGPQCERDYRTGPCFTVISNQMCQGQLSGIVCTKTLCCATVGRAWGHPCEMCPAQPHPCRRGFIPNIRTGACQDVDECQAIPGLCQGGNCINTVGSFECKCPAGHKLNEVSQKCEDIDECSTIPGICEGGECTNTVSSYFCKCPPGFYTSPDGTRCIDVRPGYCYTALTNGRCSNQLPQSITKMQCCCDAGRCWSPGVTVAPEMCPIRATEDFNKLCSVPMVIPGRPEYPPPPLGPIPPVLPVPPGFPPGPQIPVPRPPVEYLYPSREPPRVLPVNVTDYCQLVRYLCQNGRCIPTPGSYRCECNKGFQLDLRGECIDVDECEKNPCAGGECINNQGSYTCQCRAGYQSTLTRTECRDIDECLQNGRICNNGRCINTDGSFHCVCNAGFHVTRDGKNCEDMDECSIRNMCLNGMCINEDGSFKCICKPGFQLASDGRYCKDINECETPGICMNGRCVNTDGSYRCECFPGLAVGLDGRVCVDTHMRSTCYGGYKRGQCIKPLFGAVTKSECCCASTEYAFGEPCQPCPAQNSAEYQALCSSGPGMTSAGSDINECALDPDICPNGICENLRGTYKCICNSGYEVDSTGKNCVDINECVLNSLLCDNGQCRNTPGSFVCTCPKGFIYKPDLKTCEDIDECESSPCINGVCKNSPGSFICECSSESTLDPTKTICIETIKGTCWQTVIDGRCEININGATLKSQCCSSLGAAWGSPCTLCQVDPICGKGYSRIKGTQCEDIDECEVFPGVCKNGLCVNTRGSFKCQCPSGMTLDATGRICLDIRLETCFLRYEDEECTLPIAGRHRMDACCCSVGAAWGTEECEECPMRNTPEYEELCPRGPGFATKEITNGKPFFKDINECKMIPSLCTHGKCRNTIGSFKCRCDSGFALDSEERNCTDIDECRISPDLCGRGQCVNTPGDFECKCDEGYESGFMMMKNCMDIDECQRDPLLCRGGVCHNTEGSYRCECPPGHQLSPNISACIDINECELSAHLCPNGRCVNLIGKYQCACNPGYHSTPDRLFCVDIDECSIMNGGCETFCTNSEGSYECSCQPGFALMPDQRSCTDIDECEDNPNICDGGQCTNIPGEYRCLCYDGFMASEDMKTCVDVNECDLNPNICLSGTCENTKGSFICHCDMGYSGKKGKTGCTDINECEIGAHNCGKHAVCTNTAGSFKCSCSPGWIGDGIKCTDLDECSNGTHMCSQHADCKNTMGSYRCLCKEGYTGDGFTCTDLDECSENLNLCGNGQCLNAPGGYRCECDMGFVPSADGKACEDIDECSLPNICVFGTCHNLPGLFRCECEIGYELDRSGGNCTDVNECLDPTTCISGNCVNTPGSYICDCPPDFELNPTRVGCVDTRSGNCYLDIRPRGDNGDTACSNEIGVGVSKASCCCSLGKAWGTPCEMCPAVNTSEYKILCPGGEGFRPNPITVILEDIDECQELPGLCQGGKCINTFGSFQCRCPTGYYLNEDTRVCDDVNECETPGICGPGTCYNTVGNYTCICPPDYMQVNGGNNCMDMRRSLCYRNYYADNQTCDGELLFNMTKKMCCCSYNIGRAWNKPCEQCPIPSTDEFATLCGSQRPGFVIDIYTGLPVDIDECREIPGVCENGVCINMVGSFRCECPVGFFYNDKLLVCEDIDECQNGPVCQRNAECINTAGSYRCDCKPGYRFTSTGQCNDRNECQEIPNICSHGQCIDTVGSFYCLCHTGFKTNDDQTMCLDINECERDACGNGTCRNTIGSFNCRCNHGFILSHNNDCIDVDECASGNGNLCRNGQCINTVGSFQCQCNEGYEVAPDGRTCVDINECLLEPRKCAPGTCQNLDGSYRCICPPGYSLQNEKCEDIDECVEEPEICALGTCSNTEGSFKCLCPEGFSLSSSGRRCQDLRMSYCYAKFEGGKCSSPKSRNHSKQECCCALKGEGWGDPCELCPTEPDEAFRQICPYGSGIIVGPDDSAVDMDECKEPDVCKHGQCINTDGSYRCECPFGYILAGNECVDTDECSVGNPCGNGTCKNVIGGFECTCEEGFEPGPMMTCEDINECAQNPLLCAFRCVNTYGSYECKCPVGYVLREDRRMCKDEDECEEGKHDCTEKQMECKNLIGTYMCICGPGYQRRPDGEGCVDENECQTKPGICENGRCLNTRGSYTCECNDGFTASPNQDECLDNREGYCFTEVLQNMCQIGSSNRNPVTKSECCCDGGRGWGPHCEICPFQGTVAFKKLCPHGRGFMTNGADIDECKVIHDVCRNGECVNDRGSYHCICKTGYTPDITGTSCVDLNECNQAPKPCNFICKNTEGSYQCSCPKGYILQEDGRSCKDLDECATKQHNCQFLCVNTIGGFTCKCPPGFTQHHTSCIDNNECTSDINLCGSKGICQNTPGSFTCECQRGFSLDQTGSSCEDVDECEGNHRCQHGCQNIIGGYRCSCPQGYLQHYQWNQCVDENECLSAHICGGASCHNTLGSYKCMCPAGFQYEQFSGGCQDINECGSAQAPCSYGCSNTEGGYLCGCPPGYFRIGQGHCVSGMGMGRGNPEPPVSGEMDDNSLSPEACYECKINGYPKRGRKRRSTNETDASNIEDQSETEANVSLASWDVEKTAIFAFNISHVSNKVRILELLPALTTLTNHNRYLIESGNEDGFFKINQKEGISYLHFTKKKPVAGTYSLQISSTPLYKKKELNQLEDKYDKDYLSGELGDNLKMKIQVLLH
human insoluble aortic elastin, sequence (P15502 27-786): as the sequence (P15502 27-786) above

Substance | cleavage fragments, fibronectin Western blot of supernatants [1] | cleavage fragments, fibrillin-1 Western blot of supernatant and ECM [2] | radioactivity increase over background [3] [fold for aortic elastin] | radioactivity increase over background [4] [fold for skin elastin]
Granzyme A | supernatants treated with granzyme A for the indicated times were probed for fibronectin and several fragments were observed | showed fibrillin-1 cleavage fragments in the GrA supernatant, GrA ECM |  | 
elastase |  |  | 7.7 | 14.9
Trypsin |  | showed fibrillin-1 cleavage fragments in the GrA supernatant, GrA ECM, Trypsin supernatant, and Trypsin ECM; also recorded: showed fibrillin-1 cleavage fragments in the GrB supernatant, GrB ECM, Trypsin supernatant and Trypsin ECM |  | 

From US8715948
